Source: patent publication US20230398116A1, “Agent for reversing resistance to anticancer drugs” (Y'S AC CO., LTD., priority 2020, published 2023)

Test system: phosphorylation of AKT, JNK and EphA3 in HCC70 cells
Assay: Western blotting of phosphorylation in HCC70 cells
Assay type: cell-based, human
Details: HCC70, IL-26 30 ng/ml or Ephrin A5 200 ng/ml, gefitinib 40 μM, FIG. 26
Method: To analyze the phosphorylation of AKT, ERK, p38, JNK, STAT3, and EphA3, E0771 cells and HCC70 cells in 100 mm dishes were stimulated with IL-26 ([…]) and an anti-EphA3 polyclonal antibody (pAb) (10 μg/ml) for a specified period of time. After stimulation, the cells were lysed with a 2% protease inhibitor mixture (Sigma-Aldrich) and/or RIPA buffer added with 1×PhosSTOP (Roche Diagnostics, Tokyo, Japan), and a lysate was separated in a reduced state by SDS-PAGE (15 μg/lane). Immunoblots were performed using an anti-phosphorylated AKT antibody, an anti-phosphorylated ERK antibody, an anti-phosphorylated p38 antibody, an anti-phosphorylated JNK antibody, an anti-phosphorylated STAT3 antibody, and an anti-phosphorylated EphA3 antibody that recognize both human and mouse antigens. For reprobing, the membrane was immersed in a stripping buffer. After the stripping procedure, the membranes were re-probed with anti-pan-AKT, anti-pan-ERK, anti-pan-p38, anti-pan-JNK, anti-pan-STAT3, and anti-pan-EphA3 antibodies recognizing both human and mouse antigens. Images were taken using a C-Digit Blot scanner (MS Techno Systems, Inc., Japan).

B1: IL-26: recombinant human IL-26 dimers for cell stimulation, R&D Systems (protein)
chain: KHKQSSFTKSCYPRGTLSQAVDALYIKAAWLKATIPEDRIKNIRLLKKKTKKQFMKNCQFQEQLLSFFMEDVFGQLQLQGCKKIRFVEDFHSLRQKLSHCISCASSAREMKSITRMKRIFYRIGNKGIYKAISELDILLSWIKKLLESSQ
dephosphorylation of EphA3, activation of AKT and JNK phosphorylation: dephosphorylation of EphA3, activation of AKT and JNK phosphorylation
